The values below come from patent US8637043B2, “Compositions useful as ligands for the formyl peptide receptor like 1 receptor and methods of use thereof” (Chemocentryx, Inc., priority 2001, dated 2014).

Experiment [1] deals with mature Dendritic Cells. The experiment in a line: Calcium mobilization, mature dendritic cells. It counts as cell-based, human. The procedure:
Human recombinant CKβ8-1(25-116) chemokine was obtained from R&D Systems (Minneapolis, Minn.). The peptide SHAAGtides SEQ ID NO:1 and SEQ ID NO:6 and a control protein (the reverse sequence of SEQ ID NO:1) were synthesized and HPLC-purified using routine techniques as described in Sambrook et al., 1989, and Ausubel et al., 1999.
Immature DCs were derived by culturing CD14+ monocytes in the presence of GM-CSF and IL4. Briefly, monocytes were cultured in a T-175 flask at 10^6 cells/ml in RPMI/10% FCS. Recombinant human GM-CSF and IL4 were added on day 0, 2, 4 and 6 to a final concentration of 1000 u/ml and 500 u/ml, respectively. Cells were harvested on day 7 as immature DCs and characterized for surface protein expression by FACS analysis. DC maturation was carried out by culturing day 6 immature DCs in macrophage-conditioned medium (MCM). Briefly, day 6 immature DCs were harvested by centrifugation and resuspended in MCM at 10^6 cells/ml. The medium was supplemented with 1000 u/ml of GM-CSF and 500 u/ml IL4. After three more days of culture, cells were harvested as mature DCs and characterized by surface protein expression flow cytometry.
MCM was prepared as follows: PBMCs isolated from buffy coat were incubated at 37° C. in a plastic flask pre-coated with 10 mg/ml human IgG (Sigma, St Louis, Mo.) for 30 minutes. After 30 minutes, non-adherent cells were removed and adherent cells were washed three times with DPBS, then cultured in RPMI/10% human serum. Conditioned-medium was collected after 24 hours. TNF-α concentration, which is critical for DC maturation, was determined by using a TNF-α ELISA kit (R&D Systems, Minn.). The final TNF-α level in MCM was adjusted to 50 u/mi by mixing with RPMI/10% human serum, and was stored at −80 freezer until use.
Ca^2+ mobilization responses were performed using an intracellular ratiometric fluorescent dye, Indo-1. Cells were loaded with Indo-1/AM (3 μM; Molecular Probes (Eugene, Oreg.)) in culture medium (45 min, 20° C., 10^7 cells/mi). After dye loading, cells were washed once (10 ml PBS) and resuspended at 10^6 cell/ml in HBSS containing 1% FBS. Cytosolic [Ca^2+] release was determined using excitation at 350 nm using a Photon Technology International fluorimeter (excitation at 350 nm, ratioed dual emission at 400 and 490 nm).
(Calcium flux is commonly read through the fluorescence of an indicator in the cells.)

For experiment [2], the target named is monocytes. The experiment in a line: 125I-MIP-1α binding competition, monocytes. Details: species or system human. Particulars: for IC50: Monocytes; for MIP-1α displacement on monocytes compared with HEK293-CCR1 cells: comparison in words. The procedure:
The binding characteristics of CCL23 variants was compared in human CCR1 expressing cells. The ability of MIP-1α and the CCL23 variants CKβ8(1-99), CKβ8(25-99), CKβ8-1(1-116) and CKβ8-1(25-116) to compete with ^125I-MIP-1α binding was investigated in HEK293-CCR1 cells (prepared as in Example 1). The cells were incubated with ^125I-labeled MIP-1α (final conc. {dot over (˜)}0.05 nM) in the presence of unlabeled chemokine (3 hours at 4° C.: 25 mM HEPES, 140 mM NaCl, 1 mM CaCl2, 5 mM MgCl2 and 0.2% BSA, adjusted to pH 7.1). Reactions mixtures were aspirated onto PEI-treated GF/B glass filters using a cell harvester (Packard). The filters were washed twice (25 mM HEPES, 500 mM NaCl, 1 mM CaCl2, 5 mM MgCl2, adjusted to pH 7.1). Scintillant (MicroScint-10; 35 μl) was added to dried filters and the filiters counted in a Packard Topcount scintillation counter. Data were analyzed and plotted using Prism software (GraphPad Software, San Diego, Calif.).
Simiar binding competition tests were conducted on monocytes and neutrophils. These cells were prepared as in Example 2.

One may read the IC50 as the point on the concentration scale where inhibition reaches its midpoint.

Values joined by “and” are separate entries in the source; they are usually repeats but may differ in a detail not shown here. Equal values may be shown once. Ends that are not written are not given here.

MLWRRKIGPQMTLSHAAG [SEQ ID NO: 1]: the calcium flux result in experiment [1] was “partially active”. The same measure, in the same setting: the entry for MLWRRKIGPQMTLSHAAY [SEQ ID NO: 6] is “partially active”.

B1: CKβ8-1(25-116): novel NH2-terminal truncated form of CKβ8-1, SEQ ID NO: 16, human recombinant chemokine (protein, listed as Homo sapiens)
chain: MLWRRKIGPQMTLSHAAGFHATSADCCISYTPRSIPCSLLESYFETNSECSKPGVIFLTKKGRRFCANPSDKQVQVCMRMLKLDTRIKTRKN
For B1, in experiment [2], the IC50 is 5 nM and 5.1 nM; the “MIP-1α displacement on monocytes compared with HEK293-CCR1 cells” value was “higher MIP-1α displacement activities”. In experiment [2] (fold higher on monocytes), the “MIP-1α displacement activity on monocytes versus HEK293-CCR1 cells” value is listed as “over 10 fold”. Besides, the calcium flux entry in experiment [1] is listed as “partially active”.

B2: CKβ8-1(1-116): alternatively spliced form of CKβ8, 116 amino acids, human recombinant chemokine (protein, listed as Homo sapiens)
chain: RVTKDAETEFMMSKLPLENPVLLDMLWRRKIGPQMTLSHAAGFHATSADCCISYTPRSIPCSLLESYFETNSECSKPGVIFLTKKGRRFCANPSDKQVQVCMRMLKLDTRIKTRKN
For B2, in experiment [2], the half-inhibitory concentration (IC50) was 55 nM and the “MIP-1α displacement on monocytes compared with HEK293-CCR1 cells” value is recorded as “higher MIP-1α displacement activities”.

B3: CKβ8(25-99): known truncated CKβ8 variant, human recombinant chemokine from R&D Systems (protein, listed as Homo sapiens)
chain: RFHATSADCCISYTPRSIPCSLLESYFETNSECSKPGVIFLTKKGRRFCANPSDKQVQVCMRMLKLDTRIKTRKN
On to B3, for which, in experiment [2], the half-maximal inhibitory concentration (IC50) is 0.25 nM.
